The chains are these.
B1: Twister Ribozyme (parent)
chain: AACACUGCCAAUGCCGGUCCCAAGCCCGGAUAAAAGUGGAGGGGGCGG

The variants in this series derive from B1. Description: self-cleavage, relative activity (ratio to wild type); higher = more cleavage; co-transcriptional.
For the variant AACACUGCCAAUGCAGGUCCCAAGCCCGGAUAAAAGUGGAGGGAGCGG, the self-cleavage worked out at 0.79. Take AACACUGCCAAUGCAGGUCCCAAGCCCGGAUAAAAGUGGAGGGCGCGG: the self-cleavage was 0.57. As for AACACUGCCAAUGCAGGUCCCAAGCCCGGAUAAAAGUGGAGGGUGCGG, the figure is 0.661; as for AACACUGCCAAUGCAGGUCCCAAGCCCGGAUAAAAGGGGAGGGGGCGG, 0.0756. Turning to AACACUGCCAAUGCGGGUCCCACGCCCGGAUAAAAGUGGAGGGGGCGG, the self-cleavage was 0.137. For AACACUGCCAAUGCGGGUCCCAUGCCCGGAUAAAAGUGGAGGGGGCGG, the self-cleavage amounted to 0.06.

As for AACACUGCCAAUGCAGGUCCCAAGCCCGGAUAAAAGUGGAGGGGGUGG, the self-cleavage stood at 0.623. Then AACACUGCCAAUGCAGGUCCCAAGCCCGGAUAAAAGUGGAGGGGGGGG, with 0.525; and AACACUGCCAAUGCGGGUCGCAAGCCCGGAUAAAAGUGGAGGGGGCGG, with 0.0898. On to AACACUGCCAAUGCGGGUCUCAAGCCCGGAUAAAAGUGGAGGGGGCGG, for which the self-cleavage came to 0.0686. As for AACACUGCCAAUGCGGGUCCCAAGCCCGGUUAAAAGUGGAGGGGGCGG, the figure is 0.108.

With AACACUGCCAAUGCAGGUCCCAAGGCCGGAUAAAAGUGGAGGGGGCGG, the self-cleavage stood at 0.192. For AACACUGCCAAUGCUGGUCCCAAGCCCGGAUAAACGUGGAGGGGGCGG, the self-cleavage is 0.863. For AACACUGCCAAUGCAGGUCCCAAGCCCGGAUAAAAGUGGAGGGGGCAG, the self-cleavage was found to be 0.39. As for AACACUGCCAAUGCAGGUCCCAAUCCCGGAUAAAAGUGGAGGGGGCGG, the figure is 0.0837.

Turning to AACACUGCCAAUGCAGGUCCCAAGCCAGGAUAAAAGUGGAGGGGGCGG, the self-cleavage was found to be 0.18. For the variant AACACUGCCAAUGCAGGUCCCAAGCCUGGAUAAAAGUGGAGGGGGCGG, the self-cleavage is 0.0943. Then AACACUGCCAAUGCAGGUCCCAAGCCCGGAUAAUAGUGGAGGGGGCGG, with 0.273; and AACACUGCCAAUGCGGGUCCCAAGCCCGGAUAAAAGUGGUGGGGGCGG, with 0.0313.

For the variant AACACUGCCAAUGCGCGUCCCAAGCCCGGAUAAAAGUGGAGGGGGCGG, the self-cleavage stood at 0.305. As for AACACUGCCAAUGCGAGUCCCAAGCCCGGAUAAAAGUGGAGGGGGCGG, the figure is 0.498; as for AACACUGCCAAUGCGUGUCCCAAGCCCGGAUAAAAGUGGAGGGGGCGG, 0.814. Consider AACACUGCCAAUGCUGGUCCCAAGCCCGGAUUAAAGUGGAGGGGGCGG, for which the self-cleavage came to 0.958.

As for AACACUGCCAAUGCGGGUCCCAAGCCCGGAUAAAAGUGAAGGGGGCGG, the self-cleavage was found to be 0.0759. As to AACACUGCCAAUGCGGGUCCCAAGCCCGGAUCAAAGUGGAGGGGGCGG, the self-cleavage was 0.112. Then AACACUGCCAAUGCUGGUCCCAAGCCCGGAUAAGAGUGGAGGGGGCGG, with 0.806; and AACACUGCCAAUGCAGGUCCCAAGCUCGGAUAAAAGUGGAGGGGGCGG, with 0.0725.

With AACACUGCCAAUGCGGUUCCCAAGCCCGGAUAAAAGUGGAGGGGGCGG, the self-cleavage came out at 0.319. Then AACACUGCCAAUGCGGCUCCCAAGCCCGGAUAAAAGUGGAGGGGGCGG, with 0.157. As for AACACUGCCAAUGCGGAUCCCAAGCCCGGAUAAAAGUGGAGGGGGCGG, the figure is 0.326.

For the variant AACACUGCCAAUGCAGGUCCCAAGCCCCGAUAAAAGUGGAGGGGGCGG, the self-cleavage is 0.757.

Consider AACACUGCCAAUGCAGGUCCCAAGCCCUGAUAAAAGUGGAGGGGGCGG, for which the self-cleavage was 0.736. As for AACACUGCCAAUGCUGGUCCCAAGCCCGGAUAAAAGUGGGGGGGGCGG, the figure is 0.162; as for AACACUGCCAAUGCUGGUCCCAAGCCCGGAUAAAAGUGGCGGGGGCGG, 0.148; as for AACACUGCCAAUGCUGGUCCCAAGCCCGGAUAAAAGUGGUGGGGGCGG, 0.15. For the variant AACACUGCCAAUGCAGGUCCCUAGCCCGGAUAAAAGUGGAGGGGGCGG, the self-cleavage amounted to 0.24. On to AACACUGCCAAUGCUGGUCCCAGGCCCGGAUAAAAGUGGAGGGGGCGG, for which the self-cleavage stood at 0.297. Then AACACUGCCAAUGCUGGUCCCACGCCCGGAUAAAAGUGGAGGGGGCGG, with 0.134. Take AACACUGCCAAUGCAGGUCCCAAGCCCGGAUAAAAGUGGAGGUGGCGG: the self-cleavage was determined as 0.258. As for AACACUGCCAAUGCAGGUCCCAAGCCCGGAUAAAAGUGGAGGCGGCGG, the figure is 0.17; as for AACACUGCCAAUGCAGGUGCCAAGCCCGGAUAAAAGUGGAGGGGGCGG, 0.151. Then AACACUGCCAAUGCAGGUUCCAAGCCCGGAUAAAAGUGGAGGGGGCGG, with 0.566. Then AACACUGCCAAUGCAGGUACCAAGCCCGGAUAAAAGUGGAGGGGGCGG, with 0.0896; and AACACUGCCAAUGCGGGUCCCAAGCCCGGAUAAACGUGGAGGGGGCGG, with 0.123. Regarding AACACUGCCAAUGCGGGUCCCAAGCCCGGAUAAAGGUGGAGGGGGCGG, the self-cleavage was found to be 0.0859. For the variant AACACUGCCAAUGCUGGUACCAAGCCCGGAUAAAAGUGGAGGGGGCGG, the self-cleavage is 0.228.

As to AACACUGCCAAUGCGGGUCCCAAGCCCGGAAAAAAGUGGAGGGGGCGG, the self-cleavage came out at 0.186.

Turning to AACACUGCCAAUGCAGGUCCCAAGCCCGGAUAAAAGUGGCGGGGGCGG, the self-cleavage worked out at 0.136. As to AACACUGCCAAUGCAGGUCCCAAGCCCGGAUAAAAGUGGGGGGGGCGG, the self-cleavage stood at 0.107. Then AACACUGCCAAUGCAGGUCACAAGCCCGGAUAAAAGUGGAGGGGGCGG, with 0.0707.

AACACUGCCAAUGCAGGUCUCAAGCCCGGAUAAAAGUGGAGGGGGCGG: the self-cleavage came to 0.397. As for AACACUGCCAAUGCAGGUCCCAAGCCCGGAUAAAAGUGCAGGGGGCGG, the figure is 0.124; as for AACACUGCCAAUGCAGGUCCCAAGCCCGGAUAAAAGUGUAGGGGGCGG, 0.172. As for AACACUGCCAAUGCAGGUCCCAAGCCCGGAUAAAAGUUGAGGGGGCGG, the figure is 0.355; as for AACACUGCCAAUGCAGGUCCCAAGCCCGGAUAAAAGUGGAUGGGGCGG, 0.177; as for AACACUGCCAAUGCAGGUCCCAAGCCCGGCUAAAAGUGGAGGGGGCGG, 0.648. Then AACACUGCCAAUGCAGGUCCCAAGCCCGGUUAAAAGUGGAGGGGGCGG, with 0.89; and AACACUGCCAAUGCGGGUCCCUAGCCCGGAUAAAAGUGGAGGGGGCGG, with 0.0572; and AACACUGCCAAUGCGGGUCCCGAGCCCGGAUAAAAGUGGAGGGGGCGG, with 0.0636.

On to AACACUGCCAAUGCGGGUCCCAAGCCCGGAUAUAAGUGGAGGGGGCGG, for which the self-cleavage was 0.121. In the case of AACACUGCCAAUGCAGUUCCCAAGCCCGGAUAAAAGUGGAGGGGGCGG, the self-cleavage worked out at 0.0769. For AACACUGCCAAUGCAGAUCCCAAGCCCGGAUAAAAGUGGAGGGGGCGG, the self-cleavage stood at 0.061. Then AACACUGCCAAUGCGGGUCCCAAGCCCGGAUAAAAGUGGAGGGAGCGG, with 0.0802; and AACACUGCCAAUGCAGGUCCCAAGCCCGGAUAAAAGUGGAGAGGGCGG, with 0.156; and AACACUGCCAAUGCAGGUCCAAAGCCCGGAUAAAAGUGGAGGGGGCGG, with 0.133. For AACACUGCCAAUGCAGGUCCUAAGCCCGGAUAAAAGUGGAGGGGGCGG, the self-cleavage stood at 0.0997.

As for AACACUGCCAAUGCAGGUCCCAAGCCCGUAUAAAAGUGGAGGGGGCGG, the self-cleavage worked out at 0.607.

On to AACACUGCCAAUGCAGGUCCCAAGCCCGCAUAAAAGUGGAGGGGGCGG, for which the self-cleavage was 0.156. Then AACACUGCCAAUGCGGGUCCCAAGCCCGGAUAAAAGUGGAGGGGACGG, with 0.113. For AACACUGCCAAUGCGGGUCCCAAGCCCGGAUAAAAGUGGAGGGGCCGG, the self-cleavage is 0.0924. In the case of AACACUGCCAAUGCGGGUCCCAAGCCCGGAUAAAAGUGGAGGGGUCGG, the self-cleavage worked out at 0.133. With AACACUGCCAAUGCGGGUCCCAAGCCCGGAUAAAAGUGGAGGGGGCGC, the self-cleavage was 0.0718. As for AACACUGCCAAUGCGGGUCCCAAGCCCGCAUAAAAGUGGAGGGGGCGG, the figure is 0.0981; as for AACACUGCCAAUGCGGGUCCCAAGCCCGAAUAAAAGUGGAGGGGGCGG, 0.104. Then AACACUGCCAAUGCGGGUCCCAAGCCCGGAUAAAAGUUGAGGGGGCGG, with 0.0777; and AACACUGCCAAUGCGGGUCCCAAGCCCGGAUAAAAGUCGAGGGGGCGG, with 0.0527. Then AACACUGCCAAUGCGGGUCCCAAGCCCGGAUAAAAUUGGAGGGGGCGG, with 0.0831; and AACACUGCCAAUGCGGGUCCCAAGCCCGGAUAAAACUGGAGGGGGCGG, with 0.0921; and AACACUGCCAAUGCUGGUCCCAAGCCCGGAUAAAAGUGGAGGGGGCGG, with 0.975.

Consider AACACUGCCAAUGCGGGUCCCAAGCCCGGAUAAAAGUGGAGGGGGCGG, for which the self-cleavage is 0.101. As for AACACUGCCAAUGCGGGUCCCAAGCCCGGAUAAAAGUGGACGGGGCGG, the figure is 0.0823.

Take AACACUGCCAAUGCGGGCCCCAAGCCCGGAUAAAAGUGGAGGGGGCGG: the self-cleavage amounted to 0.048. Then AACACUGCCAAUGCGGGACCCAAGCCCGGAUAAAAGUGGAGGGGGCGG, with 0.04; and AACACUGCCAAUGCGGGUCCCAACCCCGGAUAAAAGUGGAGGGGGCGG, with 0.0723; and AACACUGCCAAUGCGGGUCCCAAUCCCGGAUAAAAGUGGAGGGGGCGG, with 0.0758.

For AACACUGCCAAUGCGGGUCCCAAACCCGGAUAAAAGUGGAGGGGGCGG, the self-cleavage is 0.0815. Turning to AACACUGCCAAUGCAGGUCCCACGCCCGGAUAAAAGUGGAGGGGGCGG, the self-cleavage was determined as 0.0415.

Take AACACUGCCAAUGCGGGUUCCAAGCCCGGAUAAAAGUGGAGGGGGCGG: the self-cleavage was 0.0895. As for AACACUGCCAAUGCAGGUCCCAAGCCCGGACAAAAGUGGAGGGGGCGG, the figure is 0.718; as for AACACUGCCAAUGCAGGUCCCAAGCCCGGAUACAAGUGGAGGGGGCGG, 0.538. Then AACACUGCCAAUGCAGGUCCCAAGCCCGGAUAAAACUGGAGGGGGCGG, with 0.0919. AACACUGCCAAUGCAGGUCCCAAGCCCGGAUAAAAUUGGAGGGGGCGG: the self-cleavage came to 0.142.

For the variant AACACUGCCAAUGCUGGUCCCCAGCCCGGAUAAAAGUGGAGGGGGCGG, the self-cleavage was determined as 0.932. Regarding AACACUGCCAAUGCUGGUCCCUAGCCCGGAUAAAAGUGGAGGGGGCGG, the self-cleavage came out at 0.703.

As to AACACUGCCAAUGCAGGUCCCAAGCCCGGAUAAAAGUGGAGGGGUCGG, the self-cleavage was determined as 0.528.

With AACACUGCCAAUGCGGGUCCCAAGCGCGGAUAAAAGUGGAGGGGGCGG, the self-cleavage amounted to 0.0537. Then AACACUGCCAAUGCGGGUCCCAAGCCCCGAUAAAAGUGGAGGGGGCGG, with 0.599; and AACACUGCCAAUGCGGGUCCCAAGCCCAGAUAAAAGUGGAGGGGGCGG, with 0.624; and AACACUGCCAAUGCGGGUCCCAAGCCCGGAUAAAAGUGGAGGUGGCGG, with 0.104. As for AACACUGCCAAUGCGGGUCCCAAGCCCGGAUAAAAGUGGAGGCGGCGG, the figure is 0.0538; as for AACACUGCCAAUGCGGGUCCCAAGCCCGGAUAAAAGUGGAGCGGGCGG, 0.0975. Take AACACUGCCAAUGCGGGUCCCAAGCCCGGAUAAGAGUGGAGGGGGCGG: the self-cleavage amounted to 0.103. Then AACACUGCCAAUGCGGGUCCCAAGCCCGGAUAAUAGUGGAGGGGGCGG, with 0.109; and AACACUGCCAAUGCGGGUCCCAAGCCCGGAUAAAAGUGGAGGGGGCCG, with 0.0669; and AACACUGCCAAUGCGGGUCCCAAGCCCGGAUAAAAGUGGAGGGGGCUG, with 0.0543. As for AACACUGCCAAUGCGGGUCCCAAGCCCGGAUAAAAGUGGAGGGGGCAG, the self-cleavage was 0.0633. AACACUGCCAAUGCAGGACCCAAGCCCGGAUAAAAGUGGAGGGGGCGG: the self-cleavage is 0.0699. On to AACACUGCCAAUGCAGGCCCCAAGCCCGGAUAAAAGUGGAGGGGGCGG, for which the self-cleavage worked out at 0.104.

Values taken from the RNAGym collection of RNA variant scans (doi:10.7554/elife.80360).
